Experimental data taken from patent publication US20190031771A1 (University of Pennsylvania, published 2019).
Residue numbers refer to the chain shown, from its start.

T1: human ADAMTS13 (human, UniProt Q76LX8 75-1427)
T1 construct: ELISA: full-length recombinant ADAMTS13 coated on plates (Technoclone); Activity assays: endogenous ADAMTS13 of normal human plasma; also called full-length human recombinant ADAMTS13; VWF-cleaving protease
T1 sequence (looked up): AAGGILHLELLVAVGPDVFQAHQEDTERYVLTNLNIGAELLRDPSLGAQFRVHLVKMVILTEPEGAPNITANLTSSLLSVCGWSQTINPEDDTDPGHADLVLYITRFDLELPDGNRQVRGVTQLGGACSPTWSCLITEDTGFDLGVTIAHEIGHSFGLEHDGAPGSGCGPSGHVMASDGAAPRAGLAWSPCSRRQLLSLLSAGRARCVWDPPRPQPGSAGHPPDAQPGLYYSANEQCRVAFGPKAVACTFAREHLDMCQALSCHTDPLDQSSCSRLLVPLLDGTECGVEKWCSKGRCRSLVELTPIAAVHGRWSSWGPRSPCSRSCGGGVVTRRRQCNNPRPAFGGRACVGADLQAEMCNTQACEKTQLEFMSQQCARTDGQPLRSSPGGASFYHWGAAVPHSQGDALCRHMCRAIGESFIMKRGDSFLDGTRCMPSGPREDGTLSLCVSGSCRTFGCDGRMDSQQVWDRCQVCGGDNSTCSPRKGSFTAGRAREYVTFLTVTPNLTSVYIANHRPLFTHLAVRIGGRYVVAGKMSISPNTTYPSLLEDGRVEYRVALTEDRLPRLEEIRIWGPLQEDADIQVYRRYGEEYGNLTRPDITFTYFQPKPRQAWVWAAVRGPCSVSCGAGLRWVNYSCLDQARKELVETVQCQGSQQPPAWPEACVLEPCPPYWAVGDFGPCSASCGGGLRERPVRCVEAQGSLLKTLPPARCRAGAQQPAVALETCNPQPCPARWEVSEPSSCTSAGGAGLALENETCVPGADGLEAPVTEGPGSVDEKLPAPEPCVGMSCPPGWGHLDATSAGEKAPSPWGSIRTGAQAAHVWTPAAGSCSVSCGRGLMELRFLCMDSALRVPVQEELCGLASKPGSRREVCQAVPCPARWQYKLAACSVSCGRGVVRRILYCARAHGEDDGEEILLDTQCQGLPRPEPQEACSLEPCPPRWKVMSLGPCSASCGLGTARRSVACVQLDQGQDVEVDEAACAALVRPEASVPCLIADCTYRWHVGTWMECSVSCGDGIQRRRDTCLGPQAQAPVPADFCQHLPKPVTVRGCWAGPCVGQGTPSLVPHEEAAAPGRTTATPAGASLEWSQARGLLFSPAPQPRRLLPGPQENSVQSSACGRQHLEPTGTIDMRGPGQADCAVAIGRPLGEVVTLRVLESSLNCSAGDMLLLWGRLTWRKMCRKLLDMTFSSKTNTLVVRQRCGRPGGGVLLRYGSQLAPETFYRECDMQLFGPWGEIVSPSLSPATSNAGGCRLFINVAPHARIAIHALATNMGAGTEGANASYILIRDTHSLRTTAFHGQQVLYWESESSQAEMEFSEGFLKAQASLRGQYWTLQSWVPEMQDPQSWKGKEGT

B1: scFv 1-401 (scFv, V domains shown)
VH: QVQLVQSGAELKKPGSSVKVSCKASGGAFTMYTINWVRQAPGRGLEWMGRIIPILGITDYAQKFQGRGTITADKSTSTAYLELSGLTSEDTAVYYCAREFSGGNYFDFWGQGTLVTVSS
VL: ELVLTQPPSVSVAPGKTARMTCGGNNIGGYSVHWYQQKPGQAPVLVVYHDSDRPSGIPERFTGSNSGNMATLTISRVEAGDEADYYCQVWDSSNDHSVFGGGTELTVL
B2: scFv 1-458 (scFv, V domains shown)
VH: B1 VH
VL: ELVLTQPPSVSVAPGKTARIPCGGNNIGGKSVHWYQQRPGQAPVLVVYSDSVRPSGIPERFSGSNSGNTATLTISRVEAGDEADYYCQVWDRSSDHVVFGGGTQLTVL
B3: scFv 2-206 (scFv, V domains shown)
VH: QVQLVQSGADVKKPGSSVKVSCKASGGTFSSYTINWVRQAPGQGLEWMGRIVPILDIANYAQKFQGRVTITADKSTSTAYMELSSLTSEDTAVYYCARDRGYDNKYGAYWGQGTLVTVSS
VL: ELVLTQPPSVSVAPGQTARITCGGNNIGSKNVHWYQQKPGQAPVLVVYDDSDRPSGIPERFSGSNSGNTATLTISRVEAGDEADYYCQVWDSSSDHWVFGGGTKVTVL
B4: scFv 2-304 (scFv, V domains shown)
VH: QVHLVQSGAEVKKPGSSVKVSCKASGGTFSSYAISWVRQAPGQGLEWMGGITPILGVTNYSQKFQGRVTVTADISTTTAYMELSSLTSEDTAVYYCARDQGYANDYGAYWGQGTLVTVSS
VL: B3 VL with G28E, D52G, V105L
B5: scFv 2-207 (scFv, V domains shown)
VH: B4 VH with H3Q
VL: B3 VL with N31S, Y48H, S75G, E78G, K104Q, V105L
B6: scFv 2-301 (scFv, V domains shown)
VH: B4 VH with H3Q
VL: B3 VL with T21I, N31T, T71A, D91H
B7: scFv 1-417 (scFv, V domains shown)
VH: QVQLVQSGTEVKKFGSSVKVSCKASGGSFSSYTISWVRQAPGQGLEWMGSFIPILERANYAQKFQGRVTFTADKTTSTAYMELGGLRSQDTAVYYCARDLGDFGDSWGQGTLVTVSS
VL: ELVLTQPPSVSVAPGKTARITCGGNNIGSKTVHWYQQKPGQAPVVVVSDDSERPSGIPERFSGSNSGNTATLTISRVEGGDEADYYCQVWDSSNDQVVFGGGTELTVL
B8: scFv 2-108 (scFv, V domains shown)
VH: EVQLVQSGGGLVQPGGSLRLSCAASGFTFSSYWMSWVRQAPGKGLEWVANIKQDGSEKHYVDSMKGRFTISRDNGKNSLYLQMNSLRAEDTAVYYCARSPGYYFDYWGQGTLVTVSS
VL: ELVVTQPPSASGTPGQRVTISCSGSSSNIGSNYVYWYEQLPGTAPKLLIYRNNQRPSGVPDRFSGSKSGTSASLAISGLRSEDEADYYCAAWDDSLRVYVFGTGTKLTVL
B9: scFv 1-441 (scFv, V domains shown)
VH: QVQLQESGGGVVQPGRSLRLSCTDSGFTFSRYAMHWVRQAPGKGLEWVAGISYDGSYEYYADSVKGRFTISRDNSKNTLYVQMNSLRGEDTAVYYCARDLRGGEDYWGQGTLVTVSS
VL: ELVVTQPPSVSAAPGQKVTISCSGSTSNIGNNYVSWYQQFPGTAPKLLIYDNNKRPSGIPDRFSGSKSGTSATLGITGLQTGDEADYYCGTWDSSLSAVVFGGGTKVTVL
B10: scFv 1-423 (scFv, V domains shown)
VH: QVQLVQSGAEVKRPGSSVKVSCKASGGTFSSYTISWVRQAPGQGLEWMGSIIPVLDVTSYAQQFQGRVTITADKSTKTAYMDLSSLTFEDTALYFCSIGRYTYGHFDTWGQGTQVTVSS
VL: ELVLTQPPSVSVAPGKTARVTCGGGNIGDKAVHWYQQRPGQAPVLVVFGDSARPSGIPERFSGSNSGNTATLTISRVEVGDEADYYCQVWDSNSDHQVFGGGTKLTVL
B11: scFv 1-413 (scFv, V domains shown)
VH: QVQLVQSGSEVKKPGSSVKVSCKASGGTFSSHTLSWVRQAPGQGLEWMGEIIPILDRVKYSQNFQGRVTITADKSTNTTYMELSSVRSEDTAVYYCVSNGWSNFDFWGQGTLVTVSP
VL: ELELTQPPSVSVSPGQTARITCSGGALPKHYVYWYQQKPGQAPAVVIYKDTERPSGIPERFSGSTSGATVTLTISGVQADDDAVYFCQSVDSNDTSWIFGGGTKLTVL
B12: scFv 1-418 (scFv, V domains shown)
VH: B11 VH with L34V, K59N, S61A, Q62E, E82D, V86L, V97T, P117S
VL: B11 VL with E3V, V32A, A68T
B13: scFv 1-410 (scFv, V domains shown)
VH: QVQLQESGGGVVQPGGSLRLSCAASGFTFDDYTMHWVRQAPGKGLEWVSLISWDGGSTYYADSVKGRFTISRDNSKNSLYLQMNSLRTEDTALYYCAKDNGYDILTDYLDSWGQGTLVTVSS
VL: ELQMTQSPSSLSASVGDRVTITCQASQDISNYLNWYQQKPGKAPKLLIYDASNLETGVPSRFSGSGSGTDFTFTISSLQPEDIATYYCQQYDNLPLTFGQGTRLEIK
B14: scFv 1-432 (scFv, V domains shown)
VH: QVQLVQSGAEVKKPLSSVKVSCKASGGTFNMYDINWVRQAPGQGLEWMGGIVPILGVTNYAQNFQGRLTITADKSTSTAYMELSSLRSEDTAVYYCARGVAAGWNAFDVWGQGTMVTVSA
VL: ELVLTQPPSMSVVPGQTARITCGGDNIGSKSVHWYQQKPGQAPVLVVNDDTERPSGIPDRFSGSNSGNTATLVISRVGAGDEADYFCQVWDSRSDHQVFGGGTKLTVL
B15: scFv 1-451 (scFv, V domains shown)
VH: QVQLVQSGGGLVQPGRSLRLSCAASGFIFDDYAMHWVRQAPGKGLEWVSGISWNSGSIGYADSVKGRFTISRDNAKNSLYLQMNSLRAEDTALYYCAKDPNSLYRSGSFDYWGQGTLVTVSS
VL: not shown
B16: scFv 1-440 (scFv, V domains shown)
VH: B15 VH with Q1E, V5L, Q6E
VL: ELQMTQSPSSLSASVGDRVTITCRASQSISSYLNWYQQKPGKAPKLLIYAASSLESGVPSRFSGSGSGTDFTLTISSLQPEDFASYYCQQSYSTPFTFGPGTKVDIK
B17: scFv z1-201 (scFv, V domains shown)
VH: B15 VH with S7F
VL: not shown
B18: scFv 1-415 (scFv, V domains shown)
VH: QVQLQESGGGVVQPGRSLRLSCAASGFTFRNYAMHWVRQAPGKGLEWVAVISYDGGKEYYADSVKGRFTISRDNSKNTLYLQMNSLRAEDTAVYYCARDTFSYYDFWRAFDYWGQGTLVTVSS
VL: ELELTQPPSVSGSPGQSITISCTGTSSDVGGYNYVSWYQQHPGKAPKLMIYEVSNRPSGVSNRFSGSKSGNTASLTISGLQAEDEADYYCSSYTSSSTVVFGGGTKLTVL
B19: scFv 1-437 (scFv, V domains shown)
VH: QVQLVQSGGGLVKPGGSLRLSCAASGFIFSNYIMNWVRQAPGKGLEWVSSISSSGSYIYYADSVKGRFTISRDNAKNSMYLQMNSLRGEDTAVYYCAAAYDFWSGYYFWGQGTTVTVSS
VL: B18 VL with E3A, S97T, T98P, V99Y, G103T, L107V
B20: scFv 1-450 (scFv, V domains shown)
VH: QVQLVQSGAEVKKPGSSMNVSCKASGGTFSRHTINWVRQAPGQGLEWMGSIIPILGITNYAQNFQGRLTFSADKSTNTAYVELSGLRSEDTAVYYCASGDYYYDMAVWGQGTTVAVTS
VL: ELVLTQPPSVSVSPGQTARITCSGDALPKQYAYWYQQKPGQAPVLVIYKDSERPSGIPERFSGSSSGTTATLTISGVQAEDEADYYCQSAYSSGTVVFGGGTELTVL

Biological target: T1, human ADAMTS13
Assay: phage ELISA on ADAMTS13-coated plates (positive: >10-fold absorbance above background)

Row | Binder | binding result
1 | B1 | binds
2 | B2 | binds
3 | B3 | binds
4 | B4 | binds
5 | B5 | binds
6 | B6 | binds
7 | B7 | binds
8 | B8 | binds
9 | B9 | binds
10 | B10 | binds
11 | B11 | binds
12 | B12 | binds
13 | B13 | binds
14 | B14 | binds
15 | B15 | binds
16 | B16 | binds
17 | B17 | binds
18 | B18 | binds
19 | B19 | binds
20 | B20 | binds
